# Reference: the DeepSol protein solubility set
# Experiment: soluble on expression in E. coli; label from the status in PepcDB or PDB records
row,Sequence,soluble on expression in E. coli
1,MVELLAPARDLSGLITAFNNGADSVYCGLKEMSMRATAKNFERNELIEGINFAHDADKRVYLCTNTVVYEDDILNLNEILEFAKSAEVDAIIVNDIGAMVTAKELGLEVHVSVQNNITNSKTAEFFSKFAKRVVLSRELTLNQIKRIKENLKVNKVDLELEGFIHGALCTAMSGRCYLSSYLFNRNANCGDCLQPCRRSWKLVNEHADGTHELISEGKYLLSPKDLCMIEHIPEMIDVFDCFKIEGRAKNVDYVMRATKTYREAIDSVVDGTYEEKLPIFKKELDKIYNREYDTGFYFRDLTCNHDLQYEFEGNVSPYKKIEVGKVVNYFKKVDVAEITLIDDLKVGDSVLIIGPTTGCIEEKIESMQVEGENITTAKKGQNVGIKLENLVRENDKVYILKED,not soluble
2,MVENIPLAEEEHNKWHQDAVSLHLEFGIPRTAAEDIVQQCDVCQENKMPSTLRGSNKRGIDHWQVDYTHYEDKIILVWVETNSGLIYAERVKGETGQEFRVQTMKWYAMFAPKSLQSDNGPAFVAESTQLLMKYLGIEHTTGIPWNPQSQALVERTHQTLKNTLEKLIPMFNAFESALAGTLITLNIKRKGGLGTSPMDIFIFNKEQQRIQQQSKSKQE,soluble
3,MVENVKIIRKKIKNMYLVVNPDCSVVVKAPVHVSDEYINSFIKKKESWIKKHLENFESLNSKSVAKKYIDGELFKYLGNEYILKVYPSKKEYLEISDNFFNLYVLETNDFEKKKKIIEKFYRKRAEIELFEIFKSNYKVVTEKMPDFSVRKMKKRWGSCSFHKNKIILNERLIEKSKDCIEYVVFHELAHLRYPNHSKDFYNYLTELMPEWKVKKLKLNERHLEHHHHHH,soluble
4,MVEQCPALKSRIKPMLSQKRLVYKPLGSFYQVLSAEAYTKHGLNVHGVVFDELHAQPNRDLYDVMLHGSGDARKQPLFFLITTAGTDRNSICWEVHQKAEDILQGRKIDPTFYPVIYSASDTDDWTSEKVWRKVNPSLGITVDIEKLRVACENAKQNPAEENLFRQLRLNQWVKQSVRWMPMDKWDKCAFPVDAEKLRGRTCYGGLDLSSTTDITAFVLVFPPLDESDKYQILTFFWIPEENIDQRVRRDHVPYDVWERQGFLYTTEGNVVHYGFIETFIEELGMKYNIKEIAFDRWGAIQMTQNLEALGFTVVPFGQGFKDMSPPTKELMKLTLEERIAHGGHPVLRWMMDNIYVKTDPAGNIKPDKEKSTERIDGAVALIMALDRALRHDGDERNGSIYDERGILFL,soluble
5,MVESWALTTPPIDIVNQYLFFIKRKTNYMATYYYALASQKFLLEEEPFEEVLKERRRDYGEKNKEIDFWQVIQPAFLNAPELAEAKAKAPEKNVAIVSTNKSFIVWVKLRLEYVLTGEFEAPSDAIPDPLASLDLEHHHHHH,not soluble
6,MVGQIAKEMGLRAYIVGGVVRDILLGKEVWDVDFVVEGNAIELAKELARRHGVNVHPFPEFGTAHLKIGKLKLEFATARRETYPRPGAYPKVEPASLKEDLIRRDFTINAMAISVNLEDYGTLIDYFGGLRDLKDKVIRVLHPVSFIEDPVRILRALRFAGRLNFKLSRSTEKLLKQAVNLGLLKEAPRGRLINEIKLALREDRFLEILELYRKYRVLEEIIEGFQWNEKVLQKLYALRKVVDWHALEFSEERIDYGWLYLLILISNLDYERGKHFLEEMSAPSWVRETYKFMKFKLGSLKEELKKAKENYEVYRLLKPLHTSVLLLLMLEEELKEKIKLYLEKLRKVKLPKEKIEELKKQGLKGKELGERIEELKREIMNKIKLAAALE,soluble
7,MVHPALEFSDCYSDSPDFRERLKCYENELEKTNKFLKDVIKDGNNVINTFKEYSLAVQKFSQTLQSFQFDFIGDTLTDDEMNIAESFREFAGLLQDVEEARMMLVQNASDLLIKPLEKFRKEQIGVTKERRKKFEKESEKYYSQLDKHVNLSSKKKETQLQEADEQLDKERQAFYESSVEYVYQIQQVQEKKKFDVVEPVLAFLQSILTLNNLTVEMYTFRNKGTKCNTGEIPFQKVQFCTIQVDISTFMVHFCTFKLYFCTFKIP,not soluble
8,MVIATDDLETTCPNCNGSGREEPEPCPKCLGKGVILTAQGSTLLHFIKKHIHE,soluble
9,MVIEESGNESEASVAPKRRRAPKGDMRRKALLDAATVVFARDGYSSASMREVALLAGITTVGLLHHFPNKEALLSALLERRDQRVTSRFQDMVTELTLDGFLKFLKLSMSFSVENADECQAALLMNTESLSPSHPACSWHRERFQMTHEHARGHLNALIEAGEVRADINVKALAQEIFSVMDGLQIQWLRSPDDVDVMAVFEVYVQRLGRDIKAHP,not soluble
10,MVKFLRDLVKIPGESAEEGNKIARAKAEMEKLGFDKIDIDPQGNLLGYMGSGEKLIAFDGHMDTVGIGEMSNWKFDPYDGYETETEIGGRGTSDQEGGIVSAIYGAKIMKDLGLLSEKYTALVTVTVQEEDCDGLCWQYIIKEDGIRPEFVVSTEPTDGGIYRGQRGRMEIKVDVKGVSCHGSAPERGDNAIYKMADILQDVRALNNNGDTESTAIRGLVRMLDPKYNPEWQEARFLGRGTVTVSQIFHSSPSRCAVADGCTVSLDRRMTAGETWESCLEEIRNLPAVKKYGDDVTVSMYNYDRPSYTDLTYEIECYFPTWVIPENHDVTKALMETHKNLYGETRKGSVETVEMREERPLLDKWTFSTNGVSIMGRNGIPCIGFGPGAEAQAHAPNEKTWKDDLVRCAAVYAALPTVYCG,not soluble
11,MVKFMAIGTPLLKGSIKFLLLGSGELGKEVVIEAQRLGIECIAVDRYQNAPAMQVAHKSYVIDMKDYDALMAIIEREEPDYIVPEIEAINTDALIDAEKMGYTVIPTAEATKITMNRELIRRLAAEKLGLKTAKYEFADSLEELRDAVEKLGLPCVVKPIMSSSGKGQSVVRSEEDIEKAWKIAKEGARGIGNRVIVEEFINFDYEITLLTARTAEGTKFCEPIGHVQIDGDYHESWQPHNMSAELKEQAQDIAKKVTDALGGYGIFGVELFVKGDEVIFSEVSPRPHDTGMVTMITQEMSEFEIHVRAILGLPVSTKLIHPGASHVIKAEINKYAPKYHIEDALKVPNTKLRLFGKPNAKVGRRMGVALAYADSVEKARELAEKCAHAVRIE,soluble
12,MVKHIWDSERAAQLPKGVEELVYRSNLIGSDRTVCNWGGGNTSMKTTEKDFRGREIEVMWVKGSGSDLATMKAHNFSGLKLDDIRPLIKRDQMPDEEMVDYLSHCMIDSKHPRPSIETLLHAFLPYKHVDHTHPDAIISICCADNGKQIAEDIYGNRFVWVPYVRPGFTLSKMIAEGVANNPHAELVLMEKHGLVTWGETSETCYQKTISIIQEAEQYINDRINQHEVFGGKRYQPLPEDKRKQILAGIMPVIRGAVSEEKKMILSYDDHDDVLEFVNSVQAPALSQIGAACPDHLVHTKRVPLYIDWNPETQDVHKLADLIKSGVETFTSEYQAYFTRNQQDGDQIFESAPRVILIPGIGMVNTGKSYAMSKVSGALYRRAIAVMKGATALGQFVSLHENESYHVEYWPLELYKLTLAPPEAEFSRKVALITGGAGGIGSAACRRFAAEGGHVIVADLNIEGAQKIAGEINDAYGKGRAMAVKMDVTKEEDVQSAFERAALAYGGIDIVVNNAGLATSSPFDETSLKEWNLNMNVLGTGYFLVAREAFKQMKHQNRGGSMVFVGSKNSVYAGKNASAYSSVKALETHLARCIAAEGGEFGIRVNSVLPDAVLQGSAIWGSSWREERAAAYGIEPDQLEEHYRKRTALLVNIYPEDIAEAIAFFASSKAEKTTGCMITVDGGVPAAFTR,not soluble
13,MVKLFIGNLPREATEQEIRSLFEQYGKVLECDIIKNYGFVHIEDKTAAEDAIRNLHHYKLHGVNINVEASKNKSKASTKLHVGNISPTCTNQELRAKFEEYGPVIECDIVKDYAFVHMERAEDAVEAIRGLDNTEFQGKRMHVQLSTSRLRTAPGMGDQSGCYRCGKEGHWSKECPVDRTGRVADFTEQYNEQYGAVRTPYTMGYGESMYYNDAYGALDYYKRYRVRSYEAVAAAAAASAYNYAEQTMSHLPQVQSTTVTSHLNSTSVDPYDRHLLPNSGAAATSAAMAAAAATTSSYYGRDRSPLRRAAAMLPTVGEGYGYGPESELSQASAATRNSLYDMARYEREQYVDRARYSAF,soluble
